“And” between values parts separate entries of the source, which are not always exact repeats. Equal entries are not always repeated.
Conditions: Geobacillus stearothermophilus, pH 5.4, CD, sodium phosphate 10 mM, reversible: yes(>90%), whole UniProt chain shown; for denaturant m value / denaturant midpoint (higher = more stable) / unfolding free energy: 25 °C, Urea

B1: Large ribosomal subunit protein bL9 wild type, P02417 (protein)
chain: MKVIFLKDVKGKGKKGEIKNVADGYANNFLFKQGLAIEATPANLKALEAQKQKEQRQAAEELANAKKLKEQLEKLTVTIPAKAGEGGRLFGSITSKQIAESLQAQHGLKLDKRKIELADAIRALGYTNVPVKLHPEVTATLKVHVTEQK
For B1, the denaturant m value (sodium chloride 100 mM) was 0.72 kcal/mol/M and 0.64 kcal/mol/M, the “denaturant midpoint (higher = more stable)” value (sodium chloride 100 mM) was 6.18 M and 3.16 M and the unfolding free energy (sodium chloride 100 mM) was 18.6 kJ/mol and 8.45 kJ/mol. For the same protein, the denaturant m value (sodium chloride 750 mM) was 0.62 kcal/mol/M and 0.66 kcal/mol/M, the “denaturant midpoint (higher = more stable)” value (sodium chloride 750 mM) was 7.76 M and 3.64 M and the unfolding free energy (sodium chloride 750 mM) was 20.1 kJ/mol and 10 kJ/mol. For the same protein, the Tm (Thermal, sodium chloride 100 mM) was 56 °C.

— FireProtDB (doi:10.1021/bi027202n)
